# Target: T1, chimeric CNTF receptor (human CNTF receptor expressed in chimeric LIF receptor cell line LIG) in Ba/F3 cell line CNG (Homo sapiens, UniProt P26992+P40189+P42702)
# T1 construct: from the 1st to the 372nd amino acid residues; expressed in transfected cells; host or cells: Ba/F3-derived cell line LIG transfected with pCV-CNTFR, clone CNG#203 = CNG
# Experiment: Growth response of chimeric CNTF receptor-expressing Ba/F3 cell line CNG (WST-8)
# Format: cell-based
# Conditions: 72 hours culture, WST-8 absorbance
# Text: Human CNTF receptor (from the 1st to the 372nd amino acid residues; Davis, S. et al. (1991) Science, 253, 59-63) cDNA was cloned downstream of the HEF1α promoter of a mammalian expression vector, pCV, to construct human CNTF receptor (CNTFR) expression vector, pCV-CNTFR. pCV-CNTFR was linearized with Pvu I (Takara Shuzo), extracted with phenol and chloroform, and purified by ethanol precipitation.
# The linearized expression gene vector was introduced into the chimeric LIF receptor-expressing cell line LIG (see section 1-13) using an electroporation apparatus (Gene Pulser: Bio Rad). The LIG cells were washed twice with Dulbecco's PBS (hereinafter referred to as PBS), and then were suspended in PBS to give a cell density of about 1×10^7 cells/mL. […]
# The cells were washed twice with Media A, and were suspended in Media A to give a cell density of 5×10^4 cells/mL. […] After the culture, 10 μL/well WST-8 reagent (Cell Count Reagent SF; Nacalai Tesque) was added, and pre-reaction absorbance at a measurement wavelength of 450 nm and a control wavelength of 655 nm was measured using microplate reader (Model 3550, Bio Rad). The plate was incubated for two hours in a CO2 incubator (CO2 concentration, 5%), and post-reaction absorbance was measured as above. […]
# T1 sequence (P26992 23-372, change not shown): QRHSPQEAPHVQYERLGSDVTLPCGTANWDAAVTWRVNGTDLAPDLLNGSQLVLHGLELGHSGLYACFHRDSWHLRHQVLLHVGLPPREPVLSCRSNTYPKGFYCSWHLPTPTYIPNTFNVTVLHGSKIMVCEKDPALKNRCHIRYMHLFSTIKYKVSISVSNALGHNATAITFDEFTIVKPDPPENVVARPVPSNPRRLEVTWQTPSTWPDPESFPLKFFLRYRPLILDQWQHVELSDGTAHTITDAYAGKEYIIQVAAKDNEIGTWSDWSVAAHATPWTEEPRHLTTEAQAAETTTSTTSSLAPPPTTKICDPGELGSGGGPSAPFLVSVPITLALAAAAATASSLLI
# T1 sequence (P42702 45-833, change not shown): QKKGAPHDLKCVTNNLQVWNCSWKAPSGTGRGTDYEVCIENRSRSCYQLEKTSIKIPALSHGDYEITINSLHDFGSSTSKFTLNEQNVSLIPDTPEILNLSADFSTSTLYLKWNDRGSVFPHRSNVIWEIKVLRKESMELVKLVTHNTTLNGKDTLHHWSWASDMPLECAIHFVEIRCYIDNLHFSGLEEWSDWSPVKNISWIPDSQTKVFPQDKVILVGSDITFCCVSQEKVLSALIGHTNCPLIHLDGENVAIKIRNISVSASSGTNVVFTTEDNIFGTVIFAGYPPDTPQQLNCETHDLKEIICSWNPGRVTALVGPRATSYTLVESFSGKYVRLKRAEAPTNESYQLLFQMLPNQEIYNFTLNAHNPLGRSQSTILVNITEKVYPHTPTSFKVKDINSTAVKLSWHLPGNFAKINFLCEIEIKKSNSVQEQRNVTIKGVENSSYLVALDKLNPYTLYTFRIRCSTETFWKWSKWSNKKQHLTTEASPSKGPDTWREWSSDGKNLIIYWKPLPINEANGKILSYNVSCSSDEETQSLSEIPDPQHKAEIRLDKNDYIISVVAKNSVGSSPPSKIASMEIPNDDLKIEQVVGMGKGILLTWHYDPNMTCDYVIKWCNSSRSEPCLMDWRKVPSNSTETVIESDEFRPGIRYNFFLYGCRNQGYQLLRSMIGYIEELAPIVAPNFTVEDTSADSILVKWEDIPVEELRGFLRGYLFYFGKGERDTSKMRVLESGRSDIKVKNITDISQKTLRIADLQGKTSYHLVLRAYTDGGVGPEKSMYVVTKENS
# T1 sequence (P40189 23-619, change not shown): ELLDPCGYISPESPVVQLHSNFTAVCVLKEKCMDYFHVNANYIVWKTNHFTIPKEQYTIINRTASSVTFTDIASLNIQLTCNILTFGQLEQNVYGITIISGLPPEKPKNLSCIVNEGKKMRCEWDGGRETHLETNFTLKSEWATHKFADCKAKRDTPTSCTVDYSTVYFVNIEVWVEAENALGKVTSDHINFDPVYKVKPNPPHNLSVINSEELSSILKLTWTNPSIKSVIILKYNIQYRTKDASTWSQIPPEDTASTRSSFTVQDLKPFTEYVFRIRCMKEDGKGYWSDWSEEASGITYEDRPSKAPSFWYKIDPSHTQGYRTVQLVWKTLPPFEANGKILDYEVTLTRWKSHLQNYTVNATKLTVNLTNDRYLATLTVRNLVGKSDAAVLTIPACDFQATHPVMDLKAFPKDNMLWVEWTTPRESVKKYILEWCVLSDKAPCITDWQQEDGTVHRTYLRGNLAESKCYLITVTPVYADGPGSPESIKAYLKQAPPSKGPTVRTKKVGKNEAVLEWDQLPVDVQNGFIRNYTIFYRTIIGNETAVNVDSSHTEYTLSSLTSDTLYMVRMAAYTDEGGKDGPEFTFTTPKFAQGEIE
# T1 sequence (P40223 627-837 partner limits assumed): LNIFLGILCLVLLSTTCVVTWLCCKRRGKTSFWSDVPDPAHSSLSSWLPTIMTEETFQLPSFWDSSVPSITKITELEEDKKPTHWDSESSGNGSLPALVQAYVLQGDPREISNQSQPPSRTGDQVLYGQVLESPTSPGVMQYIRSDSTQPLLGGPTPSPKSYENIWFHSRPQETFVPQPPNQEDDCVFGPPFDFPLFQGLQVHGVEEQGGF
molecule,measurement,value
"human CNTF: human ciliary neurotrophic factor (Genzyme) (protein, UniProt P26441 1-200, looked up) Ciliary neurotrophic factor: MAFTEHSPLTPHRRDLCSRSIWLARKIRSDLTALTESYVKHQGLNKNINLDSADGMPVASTDQWSELTEAERLQENLQAYRTFHVLLARLLEDQQVHFTPTEGDFHQAIHTLLLQVAAFAYQIEELMILLEYKIPRNEADGMPINVGDGGLFEKKLWGLKVLQELSQWTVRSIHDLRFISSHQTGIPARGSHYIANNKKM",concentration at which an evident growth reaction was observed,≥ 0.3 ng/mL

# Reference: patent US7732133B2, “Screening methods for biologically active ligands” (Chugai Seiyaku Kabushiki Kaisha, priority 2000, dated 2010)
